Results: US10053716B2, “4-amino cinnamic acid production method using enzyme” (JAPAN SCIENCE AND TECHNOLOGY AGENCY, priority 2014, dated 2018)

Legend:
[1] = PAL activity of Escherichia coli recombinant enzyme crude extract; format: biochemical; settings: crude cell extract, BL21(DE3), 20 mM substrate
Description: (§1) [Measurement of Enzyme Activity of Escherichia coli Recombinant Enzyme Crude Extract]
(§2) Escherichia coli was inoculated into 5 ml of LB medium containing 100 mg/L ampicillin sodium or 100 mg/L kanamycin sulfate, and cultured overnight at 37° C. It was then inoculated into 200 ml of the same culture medium and cultured to an O.D. of 0.6, isopropyl-β-thiogalactopyranoside (IPTG) was added to a final concentration of 0.5 mM, and culturing was conducted for 12 hours at 28° C.
(§3) The cultured cells were collected and suspended in 20 mM potassium phosphate buffer (pH 7.5) and subjected to ultrasonic disruption and the supernatant was used as a crude extract for activity measurement. The enzyme activity was measured and quantified by measuring the absorbance at the absorption wavelength of the reaction product using a spectrophotometer, for a period of 5 minutes. For PAL activity, the crude extract was added to 100 mM Tris Buffer (pH 8.0) and 20 mM phenylalanine, reaction was conducted, and production of cinnamic acid was measured by the change in absorbance at a wavelength of 290 nm, while for 4APAL activity, 20 mM 4-aminophenylalanine was used as substrate and the absorbance at a wavelength of 315 nm due to 4-aminocinnamic acid was measured and quantified.

[2] = 4APAL activity of Escherichia coli recombinant enzyme crude extract; format: biochemical; settings: crude cell extract, BL21(DE3), 20 mM substrate
Description: as §1, §2, §3

[3] = Km and kcat of recombinant purified enzyme for phenylalanine; format: biochemical; settings: purified His-tag enzyme
Description: (§4) [Measurement of Enzyme Activity of Escherichia coli Recombinant Purified Enzyme]
(§5) Escherichia coli was inoculated into 5 ml of LB medium containing 100 mg/L ampicillin sodium or 100 mg/L kanamycin sulfate, and cultured overnight at 37° C. It was then used to inoculate 200 ml of the same culture medium and cultured to an O.D of 0.6, IPTG was added to a final concentration of 0.5 mM, and the incubation was continued for 12 hours at 28° C. The rotational speed during cultures was 120 rpm. The cultured cells were collected and suspended in 20 mM potassium phosphate buffer (pH 7.5) and subjected to ultrasonic disruption, and after centrifugal separation, the supernatant was purified using a His-Trap column and the enzyme activity was measured. The method of measuring the enzyme activity was according to the method for the crude extract described above.
(§6) Since pET28AtPAL4 and its mutants and RgPAL were produced as fusion proteins with His-tag in the Escherichia coli of Example 3, these enzymes could be easily purified using an affinity column. After culturing the producing cells, the cells were collected, disrupted and purified. The purified enzymes were used to calculate the Km values and kcat values.

[4] = Km and kcat of recombinant purified enzyme for 4-aminophenylalanine; format: biochemical; settings: purified His-tag enzyme
Description: as §4, §5, §6

[5] = Resting cell reaction, production of 4-aminocinnamic acid; format: cell-based, Escherichia coli
Description: (§7) Escherichia coli was cultured at 37° C. using LB medium containing 100 mg/L ampicillin sodium or 100 mg/L kanamycin sulfate. One platinum loop of the cells was transferred from pregrown agar medium to a test tube containing 5 ml of culture medium, and shake-culture was conducted overnight at 120 rpm.
(§8) The precultured cells were transferred at 1% into 200 ml of the same medium in a baffle-equipped flask. Shake-culture was conducted at 37° C., a prescribed amount of IPTG was added at the point when the O.D. of the culture broth reached 0.3, and the culture was conducted at 28° C. for 12 hours to induce production of the target gene.
(§9) The main cultured cells were collected and rinsed once with 50 mM KPi Buffer (pH 7), and then suspended in 5 ml of a reaction mixture containing 20 mM substrate (4-aminophenylalanine, phenylalanine), for resting cell reaction. The reaction was conducted for 0 to 24 hours while shaking at 37° C. After the reaction, the supernatant was transferred to a centrifuge tube and recovered by centrifugal separation, and high-performance liquid chromatography (HPLC) was used in the following manner for quantitation of the reaction product.
HPLC (1200 infinity series: Hewlett Packard) was used for quantitation. A Purospher STAR RP-18 endcapped column was used, with a mixture of 20 mM potassium phosphate (pH 7.0) and 100% methanol as the eluent. Measurement was carried out using absorption at wavelengths of 210 nm, 254 nm and 280 nm.
The Escherichia coli BL21-pET28a-RgPAL cells were prepared by the following method. Escherichia coli BL21-pET28a-RgPAL was shake cultured overnight at 37° C., 120 rpm using medium containing 100 mg/L kanamycin sulfate in 5 ml of LB medium (1% tryptone, 0.5% yeast extract, 0.5% sodium chloride). A 2 mL portion of the obtained cell culture solution was transferred into 200 ml of the same medium in a 500 mL-volume Erlenmeyer flask, and then shake cultured at 37° C., 120 rpm. IPTG was added when the optical density of the culture reached 0.3, and shake culture was conducted at 28° C., 120 rpm for 12 hours. The obtained Escherichia coli BL21-pET28a-RgPAL cells were collected by centrifugal separation and rinsed once with 50 mM potassium phosphate (pH 7), after which they were suspended in the same buffer containing 20 mM of substrate (4-aminophenylalanine or phenylalanine), and incubated for 24 hours while shaking at 37° C. After the reaction, the produced 4-aminocinnamic acid or cinnamic acid was quantified using HPLC. Reaction was also carried out in aqueous 50 mM potassium phosphate at pH 8 or 9, using the same method as above. […] In particular, the conversion efficiency increased by 12-fold at pH 7.

[6] = Resting cell reaction, production of cinnamic acid; format: cell-based, Escherichia coli; settings: 4-aminophenylalanine alone as substrate
Description: as §7, §8, §9
HPLC (1200 infinity series: Hewlett Packard) was used for quantitation. A Purospher STAR RP-18 endcapped column was used, with a mixture of 20 mM potassium phosphate (pH 7.0) and 100% methanol as the eluent. […]

B1: RgPAL: PAL derived from the yeast Rhodotorula glutinis, amino acid sequence SEQ ID NO: 2 (protein)
chain: MAPSVDSIATSVANSLSNGLAGDLRKKTSGAGSLLPTTETTQIDIVERILADAGATDQIKLDGYTLTLGDVVGAARRGRTVKVADSPQIREKIDASVEFLRTQLDNSVYGVTTGFGGSADTRTEDAISLQKALLEHQLCGVLPTSMDGFALGRGLENSLPLEVVRGAMTIRVNSLTRGHSAVRIVVLEALTNFLNHGITPIVPLRGTISASGDLSPLSYIAASITGHPDSKVHVDGQIMSAQEAIALKGLQPVVLGPKEGLGLVNGTAVSASMATLALTDAHVLSLLAQANTALTVEAMVGHAGSFHPFLHDVTRPHPTQIEVARNIRTLLEGSKYAVHHETEVKVKDDEGILRQDRYPLRCSPQWLGPLVSDMIHAHSVLSLEAGQSTTDNPLIDLENKMTHHGGAFMASSVGNTMEKTRLAVALMGKVSFTQLTEMLNAGMNRALPSCLAAEDPSLSYHCKGLDIAAAAYTSELGHLANPVSTHVQPAEMGNQAINSLALISARRTAEANDVLSLLLATHLYCVLQAVDLRAMEFEHTKEFEPMVTDLLKQHFGALATADVEDKVRKSIYKRLQQNNSYDLEQRWHDTFSVATGAVVEALAGNEVSLASLNAWKVACAEKAIALTRTVRDSFWAAPSSASPALKYLSPRTRILYSFVREDVGVKARRGDVYLGKQEVTIGTNVSRIYEAIKDGRIAPVLVKMMA
modifications: RgPAL cDNA
**Q.** What does the source list for B1?
**A.** PAL activity compared to AtPAL4 [1]: 8.5 fold; 4APAL activity compared to AtPAL4 [2]: 8 fold; 4APAL activity compared to AtPAL4 ([2]; listed as enzyme of the invention): approximately 8 fold; Kcat value, Phenylalanine [3]: 3.4 s⁻¹; Km [3]: 0.098 mM; Kcat value, 4-Aminophenylalanine [4]: 0.44 s⁻¹; Km [4]: 22 mM; 4-aminocinnamic acid production reached [5]: about 1 g/L; 4-aminocinnamic acid amount compared to AtPAL4 ([5]; 4-aminophenylalanine alone as substrate): 12 times; conversion efficiency increase compared to AtPAL4 ([5]; pH 7): 12 fold; 4-aminocinnamic acid produced, maximum ([5]; resting cells reaction): 825 mg/L; cinnamic acid produced compared to AtPAL4 [6]: 36%
